Measured values taken from article doi:10.1101/2024.05.23.595592 (bioRxiv, 2024).
Numbering of substitutions follows the chain as printed.

T1: TREM2 R47H, biotinylated (human, UniProt Q9NZC2, R47H, biotin on the C-terminal BirA biotinylation sequence (enzymatic, BirA))
T1 sequence: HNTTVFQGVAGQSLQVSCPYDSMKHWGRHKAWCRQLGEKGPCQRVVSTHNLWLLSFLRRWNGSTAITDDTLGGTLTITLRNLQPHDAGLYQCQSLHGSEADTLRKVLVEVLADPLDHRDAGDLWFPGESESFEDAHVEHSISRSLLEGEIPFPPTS

T2: TREM2 R62H, biotinylated (human, UniProt Q9NZC2, R62H, biotin on the C-terminal BirA biotinylation sequence (enzymatic, BirA))
T2 sequence: T1 sequence with H29R, R44H

B1: TREM2 WT, biotinylated (receptor)
chain: T1 sequence with H29R
modifications: biotin on the C-terminal BirA biotinylation sequence (enzymatic, BirA)
B2: Human IL-34 (19-241) (ligand)
chain: LGNEPLEMWPLTQNEECTVTGFLRDKLQYRSRLQYMKHYFPINYKISVPYEGVFRIANVTRLQRAQVSERELRYLWVLVSLSATESVQDVLLEGHPSWKYLQEVETLLLNVQQGLTDVEVSPKVESVLSLLNAPGPNLKLVRPKALLDNCFRVMELLYCSCCKQSSVLNWQDCEVPSPQSCSPEPSLQYAATQLYPPPPWSPSSPPHSTGSVRPVRAQGEGLL

Key:
Test in all cases: BLI
Human IL-34 (19-241) = target: B2
[1] = target: oligomeric amyloid beta 42 (UniProt P05067)
TREM2 R47H, biotinylated = target: T1, TREM2 R47H, biotinylated
TREM2 R62H, biotinylated = target: T2, TREM2 R62H, biotinylated

Row | Kd (Human IL-34 (19-241)) | Kd [1] | fold decrease in KD (affinity) against TREM2 WT (TREM2 R47H, biotinylated) | fold decrease in KD (affinity) against TREM2 WT (TREM2 R62H, biotinylated) | Binder
1 | 16.5 nM | 42.5 nM | – | – | B1
2 | – | – | ~4 fold | ~4 fold | B2
